Source: patent US20200317768A1 (published 2020)

Legend:
Human latent myostatin [1] = biological target: T1, Human latent myostatin (human, UniProt O14793 25-266; O14793 267-375); assay: SPR (BIACORE T200), 37 C, pH7.4, avidity condition (capture 185 RU), 1:1 fit; pH 7.4
T1 construct: Biotinylated in the ELISAs; also called human myostatin latent form
T1 sequence 1: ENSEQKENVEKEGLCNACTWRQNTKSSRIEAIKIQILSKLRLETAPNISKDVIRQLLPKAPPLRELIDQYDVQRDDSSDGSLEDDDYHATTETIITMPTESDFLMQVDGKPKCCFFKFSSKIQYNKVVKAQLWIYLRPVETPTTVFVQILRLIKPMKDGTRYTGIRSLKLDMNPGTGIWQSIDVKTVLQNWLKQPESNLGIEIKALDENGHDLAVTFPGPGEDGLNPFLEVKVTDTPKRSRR
T1 sequence 2: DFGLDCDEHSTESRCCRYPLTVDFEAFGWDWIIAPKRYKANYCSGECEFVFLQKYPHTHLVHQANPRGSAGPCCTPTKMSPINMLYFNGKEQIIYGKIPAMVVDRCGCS

Human latent myostatin [2] = biological target: T1, Human latent myostatin; assay: SPR (BIACORE T200), 37 C, pH5.8, avidity condition (capture 185 RU), 1:1 fit; pH 5.8
Experimental: (§1) The kinetic parameters of anti-latent myostatin antibodies against human, cynomolgus monkey (cyno), and mouse latent myostatin were assessed at 37° C. at pH7.4 using a BIACORE® T200 instrument (GE Healthcare). ProA/G (Pierce) was immobilized onto all flow cells of a CM4 chip using amine coupling kit (GE Healthcare). Anti-latent myostatin antibody and analytes were prepared in ACES pH7.4 (20 mM ACES, 150 mM NaCl, 1.2 mM CaCl₂), 0.05% TWEEN® 20, 0.005% NaN₃). […] Then human, cyno, or mouse latent myostatin was injected at 3.125 to 50 nM prepared by two-fold serial dilution, followed by dissociation. The sensor surface was regenerated with 25 mM NaOH. Kinetic parameters were determined by processing and fitting the data to a 1:1 binding model using BIACORE® T200 Evaluation software, version 2.0 (GE Healthcare).
(§2) All experimental settings were the same as in Example 7, except that measurements were also performed in ACES pH5.8 buffer in addition to ACES pH7.4 condition. Some antibodies were only measured against human latent myostatin. Antibody capture level was aimed at 185 RU and 18.5 RU, for avidity and affinity assay, respectively. Kinetic parameters were determined using 1:1 Binding fitting using BIACORE® T200 Evaluation software, version 2.0 (GE Healthcare).

[3] = biological target: T2, Cynomolgus monkey latent myostatin (cynomolgus monkey, UniProt Q95J86 25-266; Q95J86 267-375); assay: as above
T2 construct: signal 1-24; also called Cyno latent myostatin
T2 sequence 1: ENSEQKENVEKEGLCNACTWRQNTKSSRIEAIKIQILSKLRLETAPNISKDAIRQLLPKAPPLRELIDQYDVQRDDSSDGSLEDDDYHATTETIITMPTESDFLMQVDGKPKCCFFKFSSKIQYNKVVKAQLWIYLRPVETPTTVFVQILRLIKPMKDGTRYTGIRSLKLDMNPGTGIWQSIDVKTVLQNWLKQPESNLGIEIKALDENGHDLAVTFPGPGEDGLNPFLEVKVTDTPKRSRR
T2 sequence 2: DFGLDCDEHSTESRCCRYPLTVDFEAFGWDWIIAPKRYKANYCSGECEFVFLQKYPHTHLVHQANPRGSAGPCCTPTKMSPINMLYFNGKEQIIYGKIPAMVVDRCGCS
Experimental: as §1, §2

Mouse latent myostatin [4] = biological target: T3, Mouse latent myostatin (mouse, UniProt O08689 26-267; O08689 268-376); assay: as above
T3 construct: signal 1-24
T3 sequence 1: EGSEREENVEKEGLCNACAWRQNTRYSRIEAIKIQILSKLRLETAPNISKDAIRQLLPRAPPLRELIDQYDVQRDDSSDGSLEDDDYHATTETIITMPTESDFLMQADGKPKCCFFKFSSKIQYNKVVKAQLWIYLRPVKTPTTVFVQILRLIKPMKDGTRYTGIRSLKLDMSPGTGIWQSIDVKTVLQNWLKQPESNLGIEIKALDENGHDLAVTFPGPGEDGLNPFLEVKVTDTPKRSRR
T3 sequence 2: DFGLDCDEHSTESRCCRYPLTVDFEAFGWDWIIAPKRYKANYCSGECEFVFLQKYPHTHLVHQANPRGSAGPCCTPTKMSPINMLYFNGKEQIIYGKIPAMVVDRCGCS
Experimental: as §1, §2

Human latent myostatin [5] = biological target: T1, Human latent myostatin; assay: SPR (BIACORE), additional dissociation phase at pH5.8 after dissociation at pH7.4, Scrubber 2.0 fit
Experimental: Each amino acid in the CDRs was individually mutated to histidine using In-Fusion HD Cloning Kit (Clontech Inc, or Takara Bio company) according to the manufacturer's instructions. […] All histidine-substituted variants were evaluated by a modified BIACORE® assay as compared to that described above. Briefly, an additional dissociation phase at pH5.8 was integrated into the BIACORE® assay immediately after the dissociation phase at pH7.4. This is to assess the pH-dependent dissociation between antibody (Ab) and antigen (Ag) from the complexes formed at pH7.4 as opposed to the corresponding dissociation at pH5.8. The dissociation rate at pH5.8 buffer was determined by processing and fitting data using the Scrubber 2.0 (BioLogic Software) curve fitting software.
Antibodies with a combination of these mutations in the CDRs were then generated.

Human latent myostatin [6] = biological target: T1, Human latent myostatin; assay: SPR (BIACORE T200), 37 C, pH5.8, 1:1 fit; title prints avidity, by the text the affinity condition (capture 18.5 RU); pH 5.8
Experimental: as §1, §2

[7] = biological target: T2, Cynomolgus monkey latent myostatin; assay: as above
Experimental: as §1, §2

Mouse latent myostatin [8] = biological target: T3, Mouse latent myostatin; assay: as above
Experimental: as §1, §2

Kd (Human latent myostatin [1]): 0.075 nM | koff (Human latent myostatin [1]): 9.52e-05 s⁻¹ | kon (Human latent myostatin [1]): 1.27e+06 M⁻¹ s⁻¹ | Kd (Human latent myostatin [2]): 0.0797 nM | koff (Human latent myostatin [2]): 0.000128 s⁻¹ | kon (Human latent myostatin [2]): 1.6e+06 M⁻¹ s⁻¹ | Kd [3]: 0.00883 nM | koff [3]: 1.58e-05 s⁻¹ | kon [3]: 1.79e+06 M⁻¹ s⁻¹ | Kd (Mouse latent myostatin [4]): 0.0087 nM | koff (Mouse latent myostatin [4]): 2.02e-05 s⁻¹ | kon (Mouse latent myostatin [4]): 2.32e+06 M⁻¹ s⁻¹ | koff (Human latent myostatin [5]): 2.92e-05 s⁻¹ | Kd (Human latent myostatin [6]): 0.215 nM | koff (Human latent myostatin [6]): 0.000235 s⁻¹ | kon (Human latent myostatin [6]): 1.09e+06 M⁻¹ s⁻¹ | Kd [7]: 0.139 nM | koff [7]: 0.000196 s⁻¹ | kon [7]: 1.41e+06 M⁻¹ s⁻¹ | Kd (Mouse latent myostatin [8]): 0.0438 nM | koff (Mouse latent myostatin [8]): 7.08e-05 s⁻¹ | kon (Mouse latent myostatin [8]): 1.62e+06 M⁻¹ s⁻¹
B1: MS_M103205H000-SG1/M103202LO00-SK1 (antibody, human IgG1, kappa, V domains shown)
VH: QVTLKESGPVLVKPTETLTLTCTVSGIDLSSYDISWVRQAPGKGLEWVGIISYAGSTYYASWAKGRLTISKDTSKNQVVLTMTNMDPVDTATYYCARGVPAYSTGGDLWGQGTLVTVSS
VL: DIVMTQSPATLSLSPGERATLSCQSSQSVYDNNWLSWFQQKPGQPPKLLIYWASTLASGVPSRFSGSGSGTDFTLTISSLQPEDAATYYCAGGYGGGLYAFGQGTKVEIKR
notes: Humanized MST1032, not pH-dependent; also called MS1032LO00-SG1; Ab001
